Data taken from paper PMC5892938, “SARNAclust: Semi-automatic detection of RNA protein binding motifs from immunoprecipitation data”.
Residue numbers refer to the chain shown, from its start.

B1: Consensus Loop Only A (CLA) (structured_RNA)
RNA: GGUCACGUCUCAAUCAACUCAUCCCCAGGAGUUUACUCCUGUUUAGUCAACAGCUCGCAGUCAAG
B2: Consensus Loop Only B (CLB) (structured_RNA)
RNA: B1 RNA with U22A, C24U, U43A, U44A, A45U, G46C

Target: GST-SBP-SLBP (stem-loop binding protein) (Homo sapiens, UniProt Q14493 1-270)
Test: EMSA; 320 nM protein, 1 nM RNA, 1 mM Mg2+; EMSA: 10 mM HEPES pH 7.3, 20 mM KCl, 1 mM MgCl2, 20 mM DTT, 5% glycerol, 30 min, 4°C. RBNS: 25 mM Tris pH 7.5, 150 mM KCl, 0.1% Tween, 0.5 mg/mL BSA, 3 mM MgCl2, 1 mM DTT
Details: protein: recombinant; tags: N-terminal GST and SBP (pGEX6P1-SBP); label: 3' biotin; hairpin

Binder | binding result
B1 | no binding
B2 | no binding
